Values quoted from earlier work, collected in PMC8466385.

Target: Tyr411 (UniProt position 435, ALLVRYTKKVP)
Assay: kinetics
Settings: not stated for the pKa values (Table 1 footnote c gives 22.0 °C for kinetic parameters from the same reference)

What does the source list for “Human serum albumin (HSA) (Homo sapiens)”?
pKa (HSA:NphODe (p-nitrophenyl decanoate) substrate complex): 7.0; pKa (HSA:NphOHe (p-nitrophenyl hexanoate) substrate complex): 7.6; pKa (substrate-free HSA): 8.9
